The data set deals with the molecule itself. As to the kind of experiment: crystal structure; OvTIM wild-type at ~80 mg/ml, hanging-drop vapor diffusion, 0.3 M magnesium chloride hexahydrate, 0.1 M Tris pH 8.5, 22% PEG 3350, 20 °C; molecular replacement; two homodimers in the asymmetric unit.

B1: Triosephosphate isomerase from Opisthorchis viverrini (OvTIM), wild-type (enzyme)
chain: MPTDRKFFVGGNWKMNGSKKENDKLIEMLTHAKIDPNTEVLVAPPSLYLPSVREKLDKRFHVAAQNCYKVPSGAFTGEVSPAMLKDVGCDWVILGHSERRHILMETDQLVGEKTNHAISAGVNVIACIGEKLEEREAGKTEEVCFRQMEAIRKNLSSADMWNHIVIAYEPVWAIGTGKTATEQQAQEVHLAVRKWMEEKVSPAVANSIRIIYGGSVTAANCRTLAKQPDVDGFLVGGASLKPDFIEICNANA
notes: Triosephosphate isomerase (EC 5.3.1.1) of Opisthorchis viverrini; cDNA synthesized and cloned NdeI/XhoI into pET17b with a 6 His-tag and thrombin site; residues 175-179 have no clear electron density in the crystal; a thrombin site lies between tag and protein; source: E. coli BL21 (DE3) pLysS, purified (HisTrap HP, HiTrap Q HP, Superdex-200 SEC)
In the case of B1, the binding result is reported as “binds”.

The record behind these values is paper PMC6180082, “Structural Analysis of an Epitope Candidate of Triosephosphate Isomerase in Opisthorchis viverrini” (Scientific Reports, 2018).
